In patent US12338199B2, “Bis-octahydrophenanthrene carboxamides and protein conjugates thereof” (REGENERON PHARMACEUTICALS, INC., priority 2017, dated 2025):
Read-outs that look alike come from different tables or passages of the source.

T1: His9-hMSR1 (human MSR1 extracellular domain) (Homo sapiens, UniProt P21757)
T1 construct: human MSR1 extracellular domain expressed with a N-terminal nonahistidine tag; purchased R&D Systems 2708-MS
T1 sequence (P21757 77-451 limits assumed): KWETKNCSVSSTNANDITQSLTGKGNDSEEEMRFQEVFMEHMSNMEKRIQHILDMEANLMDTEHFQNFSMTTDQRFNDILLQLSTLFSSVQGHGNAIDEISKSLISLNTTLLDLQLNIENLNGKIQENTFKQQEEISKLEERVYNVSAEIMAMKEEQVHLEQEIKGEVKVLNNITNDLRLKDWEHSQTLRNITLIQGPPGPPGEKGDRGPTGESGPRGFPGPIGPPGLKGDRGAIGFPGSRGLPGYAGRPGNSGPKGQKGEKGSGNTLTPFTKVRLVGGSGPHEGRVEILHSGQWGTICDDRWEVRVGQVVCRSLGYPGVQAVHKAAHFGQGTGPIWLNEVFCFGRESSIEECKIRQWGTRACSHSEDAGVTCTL


How the values were obtained:
[1] = target: T1, His9-hMSR1 (human MSR1 extracellular domain); experiment: Biacore surface plasmon resonance binding kinetics; conditions: 25° C.; for kd / kd (s^−1): * = no dissociation observed, kd fixed at 1.00E−05; for Kd: calculated from the kinetic rates, read-out: KD (Molar); for ka: His9-hMSR1 binding to captured antibody
Description: The MSR1 antibodies disclosed herein were conjugated to various liver X receptor (LXR) payloads. This example describes how equilibrium dissociation constant (KD) values for human MSR1 reagents binding to human anti-MSR1 antibody-drug conjugates and their corresponding unconjugated parental antibodies were determined using a real-time surface plasmon resonance-based Biacore T200 biosensor.
All binding studies were performed in 10 mM HEPES, 300 mM NaCl, 3 mM EDTA, and 0.05% v/v Surfactant Tween-20, pH 7.4 (HBS-ET) running buffer at 25° C. The Biacore CM4 sensor chip surface was first derivatized by amine coupling with the goat anti-human Fcγ specific polyclonal antibody (Jackson ImmunoResearch Laboratories, Cat # BR-1008-39) to capture anti-MSR1 monoclonal antibodies. Binding studies were performed on human MSR1 extracellular domain expressed with a N-terminal nonahistidine tag (His9-hMSR1; R&D Systems, Cat #2708-MS).
The association rate (ka) and dissociation rate (kd) were determined by fitting the real-time binding sensorgrams to a 1:1 binding model with mass transport limitation using Scrubber 2.0c curve-fitting software. Binding dissociation equilibrium constant (KD) and dissociative half-life (t½) were calculated from the kinetic rates as: […]

[2] = test system: THP1/LXR-Luc cells; experiment: LXR-luciferase reporter bioassay in PMA-differentiated THP1/LXR-Luc cells; assay type: cell-based, human; conditions: for S/N (signal to noise, ratio of RLU of standard one over RLU of standard eight) / EC50: PMA-differentiated THP1/LXR-Luc cells, 48 hours; for S/N (signal to noise, ratio of RLU of standard one over RLU of standard eight): luciferase activity; for EC50: luciferase activity (One-Glo), 10-point dose response 100 nM to 0.01 nM
Excerpt: To test the efficacy of anti-MSR1 antibody-LXR conjugates in vitro, a cell-based LXR responsive luciferase reporter assay was developed. To generate the assay cell line, a LXR regulated luciferase reporter gene [Cignal Lenti LXR Reporter (luc) kit (Qiagen, Cat # CLS-001L)] was transduced into THP1 cells, and cells were selected for two weeks in puromycin. The lentivirus expresses the firefly luciferase gene under the control of a minimal CMV promoter and tandem repeats of the LXR transcriptional response element. The resulting cell line is referred to as THP1/LXR-Luc cells.
THP1/LXR-Luc cells were seeded onto 96 well plates at 40,000 cells/well in media containing RPMI supplemented with 10% FBS and pencillin/streptomycin and subsequently differentiated with 200 nM Phorbol Myristate Acetate (PMA) for 3 days. After the 3-day differentiation period, three-fold serial dilutions of antibody drug conjugates, unconjugated antibodies, or free payloads in fresh media were added to the cells at final concentration ranging from 100 nM to 0.01 nM. Media alone served as a blank control. Forty-eight hours later, luciferase activity was determined after the addition of One-Glo™ reagent (Promega, Cat # E6130) to each well. Relative light units (RLUs) were measured on a Victor luminometer (PerkinElmer) and EC50 values were determined using a four-parameter logistic equation over a 10-point dose response curve (GraphPad Prism). The signal to noise (S/N) was determined by calculating the ratio of RLU of standard one over RLU of standard eight for each of the unconjugated anti-MSR1 antibodies or free payloads. “LP #” represents a linker-payload for which the corresponding structures are provided elsewhere herein, and “P #” represents a payload for which the corresponding structures are provided elsewhere herein.

[3] = test system: THP-1 cells; experiment: BODIPY-cholesterol efflux in THP-1 macrophages; assay type: cell-based, human
Description: The ability of anti-MSR1 antibody-LXR conjugates to activate cholesterol efflux in a human macrophage cell line (THP-1; ATCC Catalog # TIB-202), was assessed using a fluorescent cholesterol analog.
Cells were differentiated into macrophages by addition of 100 nM Phorbol-12 myristate 13-acetate (Sigma, Catalog #P 8139) to the media and subjected to further incubation for 96 hours.
Percentage of BODIPY-cholesterol efflux was calculated using the following formula: [fluorescence in acceptor media/(fluorescence in acceptor media+fluorescence in cell lysate)]×100. Table 15 provides activated cholesterol efflux for the tested articles, and FIG. 15 illustrates the data in graph form.

Row | Molecule | kd [1] [s⁻¹] | Kd [1] [nM] | ka [1] [M⁻¹ s⁻¹] | further results
1 | H1H27734P-N297Q (antibody, V domains shown) VH: EVQLVESRGGLVQPGGSLRLSCAASGFTFSSYAMSWVRQAPGKGLEWVSAISGSGGSTFYADSVKGRFTISRDNSKNTVYLQMNSLRAEDTAVYYCAKALVLRFLEWLGDYWGQGTLVTVSS VL: DIQMTQSPSTLSASVGDRVTITCRASQSISSWLAWFQQKPGKAPKLLIYKASSLESGVPSRFSGSGSGTEFTLTISSLQPDDFATYYCQQYKSYWTFGQGTKVEIKR | 0.000596 | 7.72 | 77200 | 
2 | H1H27729P-N297Q (antibody, V domains shown) VH: QVQLVESGGGLVKPGGSLRLSCAASGFIFSDYYMSWIRQAPGKGLEWVSYISSSGTTIYGDSVKGRFTMSRDNAKNSLYLQMNSLRAEDTAVYYCARNYALFDYWGQGTLVTVSS VL: DIQMTQSPSSLSASVGDRVTITCQASQDISKYLNWYQQKPGKAPKLLIYYTSNLETGVPSRFSGSGSGTDFTFTISSLQPEDIATYYCHQSDYLPFTFGPGTKVDIKR | 0.000906 | 8.67 | 105000 | 
3 | H1H27754P-N297Q (antibody, V domains shown) VH: EVQLVESGGGLVQPGGSLRLSCAASGFTFRTYAMTWVRQAPGKGLDWVSAITGDGGNTYYADSVKGRFTISRDNSKNTLYLQMNSLRAEDTAIYYCAKDQRFSFALYYFDYWGQGTLVTVSS VL: DIQMTQSPSSVSASVGDRVTITCRASQGISSWLAWYQQKPGNAPKLLIYAAFSLQSGVPSRFSGSGSGTDFTLTISSLQPEDFATYYCQQANNFPWTFGQGTKVEIKR |  | 0.0499 | 200000 | kd (s^−1) [1]: ≤ 1.00E−05* s^−1
4 | H1H27731P-N297Q (antibody, V domains shown) VH: QLQLQESGPGLVKPSETLSLTCTVSGGSISRISYYWGWIRQPPGKGLEWIGSIYDSGSTYYNPSLKSRVTISIDTSKNQFSLKLSSVTAADTAVYYCVRYSSSSAFAFDYWGQGTLVTVSS VL: DIQMTQSPSSVSASVGDRVTITCRASQGISSWLAWYQQKPGKAPKLLIYAASSLQSGVPSRFSGSGSGTDFTLTISSLQPEDFATYYCQQANSFPFTFGPGTKVDIKR | 1e-05 | 0.0855 | 117000 | 
5 | H1H27739P-N297Q (antibody, V domains shown) VH: EVQLVESGGGLVQPGGSLRLSCTASGFTFSSYAMSWVRQAPGKGLEWVSAISGTGSSTYFTDSVKGRFAISRDNSKNTLYLQMNSLRAEDTAVYYCAKDGEWLSTVTLFDYWGQGTLVTVSS VL: EIVMTQSPATLSVSPGERATLSCRASQSVSSNLAWYQQKPGQAPRLLIYGASTRATGIPARFSGSGSGTDFTLTISSLQSEDFALYYCQQYFIWPPHPTFGPGTKVDIKR | 0.000555 | 4.68 | 119000 | 
6 | H1H21234N (antibody, V domains shown) VH: QVQLQESGPGLVKPSETLSLTCTVTGGSISRNYWSWIRQPPGKGLEWIGYIYYSGSIDYNPSLKSRVTISVDTSKNQFSLKLSSMTAADTAVYYCARDRWNWKYGMDVWGQGTTVIVSS VL: EIVLTQSPGTLSLSPGERATLSCRASQTVRNNYLAWYHQKPGQAPRLLIYGASSRATGIPDRFSGSGSGTDFTLTISRLEPEDFTVYYCHQYGNSPWTFGQGTKMEIKR |  |  |  | stimulation of the THP/Luc cells ([2]; 48-hour time point, in words): did not have any impact
7 | H1H21234N-N297Q (antibody, V domains shown) VH: QVQLQESGPGLVKPSETLSLTCTVTGGSISRNYWSWIRQPPGKGLEWIGYIYYSGSIDYNPSLKSRVTISVDTSKNQFSLKLSSMTAADTAVYYCARDRWNWKYGMDVWGQGTTVIVSS VL: EIVLTQSPGTLSLSPGERATLSCRASQTVRNNYLAWYHQKPGQAPRLLIYGASSRATGIPDRFSGSGSGTDFTLTISRLEPEDFTVYYCHQYGNSPWTFGQGTKMEIKR |  | 0.0454 | 220000 | Maximum efflux (%) ([3]; 24-hour treatment, BODIPY-cholesterol efflux): 18.7%; cholesterol efflux ([3]; after 24 hours, in words): did not demonstrated any measurable cholesterol efflux; kd (s^−1) [1]: ≤ 1.00E−05* s^−1; S/N (signal to noise, ratio of RLU of standard one over RLU of standard eight) [2]: No activation; EC50 [2]: No activation
8 | H1H21234N-N297Q-LP 13 (conjugate) VH: QVQLQESGPGLVKPSETLSLTCTVTGGSISRNYWSWIRQPPGKGLEWIGYIYYSGSIDYNPSLKSRVTISVDTSKNQFSLKLSSMTAADTAVYYCARDRWNWKYGMDVWGQGTTVIVSS VL: EIVLTQSPGTLSLSPGERATLSCRASQTVRNNYLAWYHQKPGQAPRLLIYGASSRATGIPDRFSGSGSGTDFTLTISRLEPEDFTVYYCHQYGNSPWTFGQGTKMEIKR |  |  |  | S/N (signal to noise, ratio of RLU of standard one over RLU of standard eight) [2]: 9.6; EC50 ([2]; read-out: EC50): 0.98 nM
